Measured values as given in paper PMC9394474 (2022).
Where two headings read alike, the source gives them in different places. Ends that are not written are not given here.

Assays:
[1] = biological target: T1, human hisTRIM7- (human, UniProt Q9C029 342-511); test: ITC
[2] = biological target: T1, human hisTRIM7-; test: ITC; remark: listed apart in the source

Row | Binder | Kd [1] | Kd [2]
1 | DNIKKKLDTYLQ [rbGYG1 322-333 peptide] | 21.1 µM | 
2 | Ac-Leu-Gln [N-terminal acetylated LQ] |  | 144 µM
